Source: US11766414B2, “Compositions, delivery systems, and methods useful in tumor therapy” (Indi Molecular, Inc., priority 2020, dated 2023)
Starred links: 1 amine or outer side, 2 acyl side, 3 side chain; linkers in the order of their positions; H or OH if unused. Positions of bridges follow the written chain, without caps; N, C: chain ends. Non-standard residues stand in square brackets, D forms with d. Residues, ends and D or L forms follow the SMILES beside them. Triazole bridges read from a SMILES are 1,4-linked. *: point of attachment. DOTA = O=C(O)CN1CCN(CC(=O)O)CCN(CC(=O)*)CCN(CC(=O)O)CC1; Pteroyl = Nc1nc2ncc(CNc3ccc(C(=O)*)cc3)nc2c(=O)[nH]1; Butanoyl(4-(4-I-phenyl)) = O=C(CCCc1ccc(I)cc1)*; Butanoyl(4-(4-MePh)) = Cc1ccc(CCCC(=O)*)cc1; Lys(N3) = [N-]=[N+]=NCCCC[C@H](N)C(=O)O; γGlu = O=C(O)[C@H](CCC(=O)[*:2])N[*:1]; AEEEA = NCCOCCOCCOCC(=O)O; Pra = C#CC[C@H](N)C(=O)O

Assays:
[1] = Plasma protein binding, human plasma; type: in vitro ADME; details: human, plasma
Method: (§1) HTD 96 a/b regenerated cellulose membrane strips with mass cutoff of 12-14 kDa were soaked in ultra-pure water at room temperature for 1 hour. Each swelled membrane was then soaked in 20:80 ethanol:water for 20 minutes.
(§2) Just prior to the experiment, the membranes were re-soaked in ultra-pure water. Plasma was prepared by thawing under cold water. The plasma was centrifuged to remove any clots and pH was adjusted to 7.0-8.0. Test articles and control compounds were diluted to 2 μM. The dialysis device was loaded by transferring 150 μL of the test article (in triplicate) to the donor side. The dialysis device was placed in a humidified incubator at 37° C. with 5% CO2 in a shaking platform that rotated slowly for 4 hours. After incubation, 50 μL of the supernatant was taken from both sides and analyzed by LC-MS/MS.

[2] = Plasma protein binding, CD-1 mouse plasma; type: in vitro ADME; details: CD-1 mouse plasma; read-out: Plasma % Bound, Mu (converted)
Method: as §1, §2

human recombinant NEP = human recombinant NEP (Homo sapiens, UniProt P08473); assay: NEP enzymatic cleavage assay (MALDI, HPLC); type: biochemical; details: for cleavage of the test article: 1 nM NEP, MALDI-TOF MS; for in vitro Assay Data (NEP assay): Table 2
human recombinant NEP, sequence (P08473 whole entry): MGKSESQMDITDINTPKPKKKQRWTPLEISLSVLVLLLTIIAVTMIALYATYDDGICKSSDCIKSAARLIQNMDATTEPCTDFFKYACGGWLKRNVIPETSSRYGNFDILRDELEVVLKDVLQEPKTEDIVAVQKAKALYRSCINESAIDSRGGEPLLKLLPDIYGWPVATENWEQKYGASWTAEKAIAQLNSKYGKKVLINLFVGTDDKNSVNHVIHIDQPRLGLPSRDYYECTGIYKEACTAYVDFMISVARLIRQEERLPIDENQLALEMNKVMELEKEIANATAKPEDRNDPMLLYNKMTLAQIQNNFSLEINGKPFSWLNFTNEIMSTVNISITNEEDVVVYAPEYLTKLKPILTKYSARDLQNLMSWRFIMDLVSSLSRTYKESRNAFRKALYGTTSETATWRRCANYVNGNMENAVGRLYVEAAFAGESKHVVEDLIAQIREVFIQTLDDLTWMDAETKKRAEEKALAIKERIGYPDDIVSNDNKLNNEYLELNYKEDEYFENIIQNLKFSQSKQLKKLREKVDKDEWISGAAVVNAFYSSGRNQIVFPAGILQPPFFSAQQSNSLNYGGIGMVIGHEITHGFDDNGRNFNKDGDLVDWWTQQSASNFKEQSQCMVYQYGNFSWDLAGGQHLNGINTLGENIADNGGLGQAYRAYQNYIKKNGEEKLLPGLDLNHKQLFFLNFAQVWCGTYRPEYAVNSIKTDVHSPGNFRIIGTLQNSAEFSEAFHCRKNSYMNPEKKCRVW
Method: In order to test the susceptibility of GFK and MVK linkers to NEP-mediated cleavage, the peptide (Folate-hshta-Lys(MPBA)-Gly-Phe-Lys(DOTA) (SEQ ID NO:6)) was incubated with human recombinant NEP and analyzed the solution for the presence of cleaved adducts. MALDI was utilized to monitor the cleavage of a PCC heterobiligand that contains a NEP protease recognizable sequence (G-F-K). The PCC concentration was constant and the NEP concentration was titrated down from 10 nM to 1 nM, 0.1 nM, 0.01 nM, and no NEP. The NEP-mediated cleaved adduct was identified by mass. 10 μM PCC containing the GFK linker was combined with varying amounts of NEP. […] Below 0.1 nM no cleavage was observed. • Folate-hshta-Lys(MPBA)-Gly-Phe-Lys(DOTA) (SEQ ID NO:6) • Molecular weight 2231.42
The NEP-mediated cleavage was also monitored by HPLC. In agreement with the MALDI spectra, the HPLC chromatograms show depletion of the parent brush-border heterobiligand (retention time 17.1 minutes), dose-dependent on the amount of NEP spiked into the sample (10 nM, 1 nM, 0.1 nM, 0.01 nM, and no NEP). An appearance of a new peak (retention time 16.5 minutes) in concert with the depletion of the starting material is presumed to be the cleaved folate-containing peptide.
In order to test the specificity of NEP, a non-cleavable linker (PEG3) was also assayed.
To reduce the radioactive dose to the kidney, Indi ^177Lu-7327 was constructed to incorporate a GFK linker that is susceptible to cleavage by enzymes found predominately in the kidney's brush border. These enzymes cleave off the radionuclide-chelator complex, which is quickly eliminated by the kidney for excretion in the urine. The zinc metalloprotease neprilysin (NEP) is expressed with high abundance in the kidney. […] To confirm NEP-mediated cleavage of the GFK linker in Indi 7327, the peptide was incubated with recombinant human NEP at 37° C. for 1 h and analyzed by matrix-assisted laser desorption/ionization mass spectrometry (MALDI-MS) for the evolution of cleaved adducts (FIG. 42). […] The expected cleaved adduct (mass: 1283.16 m/z) appears in the samples containing 10, 1.0, and 0.1 nM NEP. […] Below 0.1 nM NEP, no cleavage was observed. In addition to confirming the selectivity of NEP for the GFK linker, it is also important to note that the remaining portions of the Indi 7327 were impervious to the enzyme.

[3] = Plasma stability, human plasma
Method: (§3) Plasma was thawed in a 37° C. water bath. Residual clots were removed via centrifugation at 4000 rpm for 5 minutes. The pH of the plasma was adjusted to 7.4 if required. Test articles were diluted to 100 μM by diluting a 1 mM working solution (in DMSO) with 45% methanol in water. To 98 μL of plasma was added 2 μL of the 100 μM solution, resulting in 2 μM final concentration of the test article. Samples were incubated at 37° C. in a water bath. At the indicated time points (0, 10, 30, 60, 120 minutes) 100 μL of 4% H3PO4 was added followed by 800 μL of stop solution (200 ng/mL tolbutamide and 200 ng/mL labetalol in 100% acetonitrile). The samples were centrifuged and the plasma protein-free supernatant (100 μL) was subjected to LC-MS/MS analysis.

[4] = Plasma stability, CD-1 mouse plasma
Method: as §3

human plasma proteins = assay: Plasma protein binding, human plasma; type: in vitro ADME; details: human plasma
Method: as §1, §2

mouse plasma proteins = assay: Plasma protein binding, CD-1 mouse plasma; type: in vitro ADME; details: CD-1 mouse plasma
Method: as §1, §2

[5] = tested on: OVCAR3 (FOLR1+) tumor bearing NSG mice; details: mouse, in vivo, iv, 200 uCi, 4 h
Method: Female, 7-week-old NSG mice were housed under pathogen-free conditions. Water and food were provided ad libitum. To create mice with FOLR1+ ovarian xenograft tumors, mice were injected subcutaneously with OVCAR3 cells (1×10^7 cells per mouse) resuspended in 50% Matrigel in PBS into the shoulder region. Tumor growth was monitored by caliper measurements. OVCAR3 is a human ovarian adenocarcinoma known to over-express FOLR1.
^68Ga PET imaging was used to study in vivo biodistribution of heterobiligands in non-tumor bearing (healthy) mice and OVCAR3 tumor bearing mice. 100-200 μCi of [^68Ga]DOTA-labeled heterobiligand was administered intravenously (i.v.) via the tail vein of each mouse. […]
Evaluation of a folate-hshta (SEQ ID NO:6) Nterm heterobiligand bearing both an albumin binder and DOTA chelator in PET was a priority, given that DOTA can accommodate both ^68Ga for imaging and ^177Lu for radiotherapy. […] The time-course biodistribution of ^68Ga-labeled folate-hshta-PEG3-Lys(MPBA)-Lys(DOTA) (SEQ ID NO:6) (compound #2809) was calculated to quantify the uptake in major organs including the tumor (FIG. 17). […] Larger tumors (490 mm^3) were also evaluated with the ^68Ga-chelated PET probe.
Biodistribution was initially evaluated by PET imaging, as the time frame for a significant portion of clearance is roughly similar to the time frame of PET imaging experiments. […]

human serum albumin = human serum albumin (Homo sapiens, UniProt P02768); details: read-out: affinity for human serum albumin; cited from earlier work
[6] = human plasma, read-out: Plasma % Bound, Hu (converted)

Row | Molecule | fraction unbound [1, 6] | fraction unbound [2] | cleavage of the test article (human recombinant NEP) | in vitro Assay Data (NEP assay) (human recombinant NEP) | half-life [3] [h] | half-life [4] [h] | also measured
1 | C[C@H](O)[C@H]1NC(=O)[C@@H](Cc2c[nH]cn2)NC(=O)[C@@H](CO)NC(=O)[C@@H](Cc2c[nH]cn2)NC(=O)[C@@H](NC(=O)CC[C@H](NC(=O)c2ccc(NCc3cnc4nc(N)[nH]c(=O)c4n3)cc2)C(=O)O)Cc2cn(nn2)CCCC[C@@H](C(=O)N[C@@H](CCCCNC(=O)CCCc2ccc(I)cc2)C(=O)NCC(=O)N[C@@H](Cc2ccccc2)C(=O)N[C@@H](CCCCNC(=O)CN2CCN(CC(=O)O)CCN(CC(=O)O)CCN(CC(=O)O)CC2)C(=O)O)NC(=O)[C@@H](C)NC1=O [Compound #1307, folate-hshta-Lys(IPBA)-Gly-Phe-Lys(DOTA)] ({Pteroyl-γGlu}-[Pra][dH][dS][dH][dT][dA][Lys(N3)]K(Butanoyl(4-(4-I-phenyl)))GFK(DOTA)-OH; triazole 1-7) | 0.005 | 0.004 | complete | Cleavage of -G-F-K- | > 4.82 | > 4.82 | –
2 | C[C@@H](O)[C@@H]1NC(=O)[C@H](CCCCN)NC(=O)[C@@H](Cc2c[nH]c3ccccc23)NC(=O)[C@H](Cc2ccccc2)NC(=O)[C@@H](NC(=O)[C@H](N)Cc2ccccc2)CSSC[C@@H](C(=O)N[C@H](CO)[C@@H](C)O)NC1=O [Octreotide Acetate, reference compound] | – | – | – | – | – | – | Plasma % Bound, Hu (human plasma proteins): 59.41%; Plasma protein binding % Recovery, Hu (human plasma proteins): 84.3%; Plasma % Bound, Mu (mouse plasma proteins): 62.36%; Plasma protein binding % Recovery, Mu (mouse plasma proteins): 84.5%
3 | Cc1ccc(CCCC(=O)NCCCC[C@H](NC(=O)COCCOCCOCCNC(=O)[C@@H]2CCCCn3cc(nn3)C[C@H](NC(=O)CC[C@H](NC(=O)c3ccc(NCc4cnc5nc(N)[nH]c(=O)c5n4)cc3)C(=O)O)C(=O)N[C@H](Cc3c[nH]cn3)C(=O)N[C@H](CO)C(=O)N[C@H](Cc3c[nH]cn3)C(=O)N[C@H]([C@H](C)O)C(=O)N[C@H](C)C(=O)N2)C(=O)N[C@@H](CCCCNC(=O)CN2CCN(CC(=O)O)CCN(CC(=O)O)CCN(CC(=O)O)CC2)C(N)=O)cc1 [^68Ga-chelated compound #2809, metal not drawn] ({Pteroyl-γGlu}-[Pra][dH][dS][dH][dT][dA][Lys(N3)][AEEEA]K(Butanoyl(4-(4-MePh)))K(DOTA)-NH2; triazole 1-7) | – | – | – | – | – | – | accumulation within the tumor [5]: ~2.2 % of the injected dose/cc
4 | CSCC[C@H](NC(=O)[C@H](CCCCNC(=O)CCCc1ccc(I)cc1)NC(=O)[C@@H]1CCCCn2cc(nn2)C[C@H](NC(=O)CC[C@H](NC(=O)c2ccc(NCc3cnc4nc(N)[nH]c(=O)c4n3)cc2)C(=O)O)C(=O)N[C@H](Cc2c[nH]cn2)C(=O)N[C@H](CO)C(=O)N[C@H](Cc2c[nH]cn2)C(=O)N[C@H]([C@H](C)O)C(=O)N[C@H](C)C(=O)N1)C(=O)N[C@H](C(=O)N[C@@H](CCCCNC(=O)CN1CCN(CC(=O)O)CCN(CC(=O)O)CCN(CC(=O)O)CC1)C(=O)O)C(C)C [compound 1306, folate-hshta-Lys(IPBA)-M-V-Lys(DOTA)] ({Pteroyl-γGlu}-[Pra][dH][dS][dH][dT][dA][Lys(N3)]K(Butanoyl(4-(4-I-phenyl)))MVK(DOTA)-OH; triazole 1-7) | 0.0265 | 0.0288 | substantial | Cleavage of -M-V-K- | > 4.82 | > 4.82 | fraction unbound ([1]; species not given, read-out: bound to plasma (converted)): ~0.03
5 | GI48-GA: albumin-binding fragment of protein G from Streptococcus strain GI48, SEQ ID NO:33 (LAEAKVLANRELDKYGVSDYYKNLINNAKTVEGVKALIDEILAA) | – | – | – | – | – | – | Kd (human serum albumin): 1 nM
